Assay results as given in the DeepSol protein solubility set.

Experiment: soluble on expression in E. coli; label from the status in PepcDB or PDB records
With “GPGSMGCLPPDDLGPFVSDHVDVNEAEPVPLSDEDLDLLVRYSLLPTDVVREAWAVFNHYRVVECLRAQQRHYAMTGHLPQKSTVSMSARPFPVAECGGKLFTTPVRAASGDCNAVKEEEKAPVSPRDCVTGENSECRKEEVEVAVLGAEGLRQFFEDTGAPIPTLEVTSFLRRMSQPPVEYLLYQRALEEKLTGAAAAAAPPREESPGVGQRKKSPQTDQSKHNKGQSVGRGQRPNNNTKSLNILVDDHIDLLEEQRGSGGETVTFPLFLYILSNAELGKNFTADVRESEINTLFRTLDVDGDGVVSVDDIQRLLEERCSLGDTLYEDRDIRYLRGMNLTELKAALRECDVDEDGAVRLNDFRSVLSS” the “soluble on expression in E. coli” value was “soluble”. In the case of “MGSDKIHHHHHHMRLIGLTDLHNRIINFDKLLRYKPDAILISGDFTKCSFAKSANQNDSFEVITEQDTRIIDFLENLNNKIKVFIIPGNWENLDTIQKMNESGLNIDEKLVKFHDTIFIGLGGSNKTPICSPNEYSEDEIYERFIKILKNEKTDVKNNFILLSHVPPKDTMADRCEAGHVGSSAVRKIIEEFKPVLCACGHVHESRSIDKIGNTLIVNPSSTGFFIYDTKTKNLEIHDL”, the “soluble on expression in E. coli” value is reported as “not soluble”. With “AETTVKPTKLAVIGAGAVGSTLAFAAAQRGIAREIVLEDIAKERVEAEVLDMQHGSSFYPTVSIDGSDDPEICRDADMVVITAGPRQKPGQSRLELVGATVNILKAIMPNLVKVAPNAIYMLITNPVDIATHVAQKLTGLPENQIFGSGTNLDSARLRFLIAQQTGVNVKNVHAYIAGEHGDSEVPLWESATIGGVPMSDWTPLPGHDPLDADKREEIHQEVKNAAYKIINGKGATNYAIGMSGVDIIEAVLHDTNRILPVSSMLKDFHGISDICMSVPTLLNRQGVNNTINTPVSDKELAALKRSAETLKETAAQFGF” the “soluble on expression in E. coli” value was “soluble”. In the case of “MSLSDDSMIDAPLTRADAVSEKIVFQDDFNQVDSIPDRNKWSLCKKGSPAWSKYLSESYDQAYVHDGKLVLVAEKVNGVYKTGGVQSLGKAEFQYGKIEICARFTKTAKGGWPAIWMMPAKPVYSGWPACGEIDIMEQLNHDGIVYQTIHSHYKNDLGFTKPVPTKTVSYNKGQFNIFGIEWTPEALTFKVNGATTLVYPNLHLADESVKKQWPFDTSFYLILNYALGGPGTWPGTIMDSELPAKMEIDWVKVSQPRGREGHHHHHH”, the “soluble on expression in E. coli” value is reported as “soluble”. With “MSLSEPILFVDDEQHVLNALQRVFSESGLETVFTRSPIEALELCRSKKFAVIVSDNMMPEMKGIELLTRIKEESPETVKCLLTAHADLDTALQAINSGEVFRFIVKPWRNEELYQAVSEGVARFRIWDALRQHDEGVLHSLAETIELKDHYTRGHCNRVADHALRICELLKLPSTTSREIRYGSWLHDCGKIGVPETILNSTCMLSEQEMIVVRKHPEWGANVAQQANLSPTLINIIRHHHERFDGTGYPFGLKGVSIPLEARIVAVADVFDALTTDRPYKPAMSFAKAHKLMGDMRGNHLEGRLVDMFFQTLDTEKTGSEGHHHHHH” the “soluble on expression in E. coli” value was “not soluble”. In the case of “MSFRVSASSSVKPEKDIRIGLLGASGYTGAEIVRLLANHPHFQVTLMTADRKAGQSMESVFPHLRAQKLPTLVSVKDADFSTVDAVFCCLPHGTTQEIIKELPTALKIVDLSADFRLRNIAEYEEWYGQPHKAVELQKEVVYGLTEILREDIKKARLVANPGCYPTTIQLPLVPLLKANLIKHENIIIDAKSGVSGAGRGAKEANLYSEIAEGISSYGVTRHRHVPEIEQGLSDVAQSKVTVSFTPHLMPMIRGMQSTIYVEMAPGVRTEDLHQQLKTSYEDEEFVKVLDEGVVPRTHNVRGSNYCHMSVFPDRIPGRAIIISVIDNLVKGASGQALQNLNIMLGYPETTGLLHQPLFP”, the “soluble on expression in E. coli” value is reported as “soluble”. With “TRNVTWNIGFNATHYRNKISRLAESKKTDIIDGHAGYVNGLYYYGEGLPMYTNYVQKYAGVSEEGKPQWYYTDKQTGEMKTTTTYSQADLYLCGDAVPDLYGGINTSLSFYGFDFSTQINYSIGGQAYDYGYQALMSPPTSTHLGYNVHKDIYKAWSPENTQSDIPQWQFNDLYSVKTSDRFLTNASSISIQNIQLGYTFSKKTLRSLYLTNLRIYVACDNVYYWSKRKGFDSRVTWNGNKDSSGEYSAVRAFSAGLSLQF” the “soluble on expression in E. coli” value was “not soluble”. In the case of “MGSDKIHHHHHHMKIALIIENSQAAKNAVVHEALTTVAEPLGHKVFNYGMYTAEDKASLTYVMNGLLAGILLNSGAADFVVTGCGTGMGSMLAANAMPGVFCGLVIDPTDAFLFGQINDGNAISMPYSKGFGWAAELNLQDVYRKLFDGERGLGYPRERAEIMRKNRGILRELKDASCRDMLTVLKTVDQDLLRAAIAGEKFAELFYPNCKDDAIANYLRSLDA”, the “soluble on expression in E. coli” value is reported as “not soluble”. In the case of “MKREEYLKNYLESYLRKKEVSLTEEEFNVILREFLRFAYNPEESGQEIADTADGSKTLIHKTYGEPYHSQTAGAIRESLYKFVRPSRILEKAKERKVIRILDVGFGLGYNLAVALKHLWEVNPKLRVEIISFEKELLKEFPILPEPYREIHEFLLERVPEYEGERLSLKVLLGDARKRIKEVENFKADAVFHDAFSPYKNPELWTLDFLSLIKERIDEKGYWVSYSSSLSVRKSLLTLGFKVGSSREIGRKRKGTVASLKAPVPPMEENEVRKLVLSPFAVPMRDEKLDKEPLEILIDYLLKVYKISR”, the “soluble on expression in E. coli” value is reported as “soluble”. With “MAHHHHHHMQYVERLFSAYGHVADVKIVFEGSVQFAEVMYNAVDDADSAIAALHHHYCASRNTPLVVLYHVRSPCISEYGRKVGREYAQAAALGRDPSYIPLEGFDENYPRTDVPPPPSDREIFEGARWNDSSGPAGEGRLHSY” the “soluble on expression in E. coli” value was “not soluble”. In the case of “MGSDKIHHHHHHMLEELRTLVLFAEEGSIQNVARRLPLTQPAVTRQMQRLEDMLATTLLDRRQKPPRLTAAGLEVLARAKDILASVEALKAFAADAEPQGVLRVGLAHGLSDASIAGAIAGAAAAFPKISLRLKTGWSAELIEQFERGQLDMAIVLRPADHQGPDALGTERLCIIAQAGAHLTDARVPMPWVLSPEPCDARQTLLSSLGGERHPLIVAAEIQDPAMQMEWVRRGHGLGLMPLRLAARGLPDGLALVDLEDVDLSLQVVALRSPHLNRLAKAVEAIAQTVGEAIKIEA”, the “soluble on expression in E. coli” value is reported as “not soluble”. In the case of “MSHVSTLRRALLGALLLAPAAALANTPIPIDVWRTPTCGCCEDWLQHLRSNGFEVRAHMVEDTAPVRSQAGMPARYGSCHTARVQGYTVEGHVPAADIRRLLRDKPRAVGLTAPGMPIGSPGMDGPAYGGRRDAYDVLLVQPDGSARVFQAYR”, the “soluble on expression in E. coli” value is reported as “not soluble”. In the case of “AHHHHHHGSKAVTFPVPWEYLKRIFEGKNVFVKPATLRVEEGMKVIFYASRENQGWHGEAEVERVEYYTSVEEIIKKYRDKLFLTPEELRRYERDRARWDSGRRKRPWMVLVLRNIEKYPRVVKPKKFIVVSGRYVDEKEYEEIRRSTS”, the “soluble on expression in E. coli” value is reported as “not soluble”. With “MSLKVTFEQLKAAFNRVLISRGVDSETADACAEMFARTTESGVYSHGVNRFPRFIQQLENGDIIPDAQPKRITSLGAIEQWDAQRSIGNLTAKKMMDRAIELAADHGIGLVALRNANHWMRGGSYGWQAAEKGYIGICWTNSIAVMPPWGAKECRIGTNPLIVAIPSTPITMVDMSMSMFSYGMLEVNRLAGRQLPVDGGFDDEGNLTKEPGVIEKNRRILPMGYWKGSGMSIVLDMIATLLSDGASVAEVTQDNSDEYGISQIFIAIEVDKLIDGPTRDAKLQRIMDYVTSAERADENQAIRLPGHEFTTLLAENRRNGITVDDSVWAKIQALEGHHHHHH” the “soluble on expression in E. coli” value was “soluble”. In the case of “GAMGPVDEQWIEILRIQALCARYCLTINTQDGEGWAGCFTEDGAFEFDGWVIRGRPALREYADAHARVVRGRHLTTDLLYEVDGDVATGRSASVVTLATAAGYKILGSGEYQDRLIKQDGQWRIAYRRLRNDRLVSDPSVAVNVADADVAAVVGHLLAAARRLGTQMSDT”, the “soluble on expression in E. coli” value is reported as “soluble”. In the case of “MGSDKIHHHHHHMAVSAKYDEFNHWWATEGDWVEEPNYRRNGMSGVQCVERNGKKLYVKRMTHHLFHSVRYPFGRPTIVREVAVIKELERAGVIVPKIVFGEAVKIEGEWRALLVTEDMAGFISIADWYAQHAVSPYSDEVRQAMLKAVALAFKKMHSINRQHGCCYVRHIYVKTEGNAEAGFLDLEKSRRRLRRDKAINHDFRQLEKYLEPIPKADWEQVKAYYYAM”, the “soluble on expression in E. coli” value is reported as “not soluble”. For “MLLDVQRGQLSFTKYSIITVIWLSLSRILNRGQLSLECFEFWQPTSQLLVLDVCLLDAFALEHHHHHH”, the “soluble on expression in E. coli” value was “not soluble”. For “YCTLDDLILSFGQDEIYRLIATDQEAEKALDDAQAEIDMYLSDRYALPVKSVPKSLNRIACDIAHYYLYNSVDEDSTVYLRYKHRIKQLSDVAAGKLSLGLYDKSDDATTDNQVVFIKSSKKVFAR”, the “soluble on expression in E. coli” value was “not soluble”. In the case of “MLRNKAFVVRLYPNAAQAERINRTLGCARFVYNHFLARRIESYRQDGKGMIYAATDKALTLLKREEGTAWLAEVDKFALQQSLRDLERAYQNFFRTAKKSGKKVGFPKFKKKRTGEAYRTQFTNNNIEIGEGKLKLPKLGWVKTRGQRDMQGKILNVTVRRIHEGHYEASVLCEVEIPYLPAAPKFAAGVDVGIKDFAIVTDGKGEFEHHANPKYYRSSLRRLRKAQKTLSRRKKGSARYGRAKTTLARIHKRVANKRQDFIHKLTTSLVREYEITCTEHLKPDNMRKNRRLALSVSDAGWGEFIRQLEYKATWYGRLVSKISPYFPSSQICHDCGFKNPAVKNLAVREWTCPNCGETHDRDENAALNIRREGLVAAGMSDTQNAHGDCIRPTSVGSGLRSENHATSVVLEHHHHHH”, the “soluble on expression in E. coli” value is reported as “soluble”. With “MGSDKIHHHHHHMKKEADMIHPIANAPCSWGVDDPKNPNLPAWATVLKEAAQAGYRSIELGPWGYLPSDPASLRAALEQHQLSLVAGTIFDDLVSEAHFPTLVALTHQICRNLSQVAAAEPIPGRPFQPPYLVIIDFGNPERARFAGRGALAPRLNDKDWQRMMEHIIALSTLAWQEYGVRAVIHPHAGGSIEFADEIERLANDIPHDVAGLCLDTGHLYYAGMDPLDWLDRYYHRLDYLHFKDVDPQVYQRAIHEGIDFFTACAEGVMCPLGSGAIDYPAIKDFLARRGYQGWITIEQERDPRHAAGSLQAVTESLRYLRDVGF” the “soluble on expression in E. coli” value was “not soluble”. In the case of “MGSDKIHHHHHHMIIAVSGKGGVGKTAFTTLLIKALSKKTNSILVVDADPDSNLPETLGVEVEKTVGDIREELKKLVERDEIPAGMTKLDYLRSKIFEILVETKYYDLLVMGRPEGSGCYCSVNNWLRQIIDNLAKDYEFVVIDTEAGLEHLSRRTTQNVDVMIVITDASKRGLGTAKRIKKLANELEVKFKDIYVVANKVKPEYEELIDNYAKELGLNLIGKLPYNKEIAEYDLKGIPLWNLPENNEVYKKVEEIAEKIINKKF”, the “soluble on expression in E. coli” value is reported as “not soluble”. In the case of “MQYEKVKPPENGEKIRYENGKLIVPDNPIIPYFEGDGIGKDVVPAAIRVLDAAADKIGKEVVWFQVYAGEDAYKLYGNYLPDDTLNAIKEFRVALKGPLTTPVGGGYRSLNVTIRQVLDLYANVRPVYYLKGVPSPIKHPEKVNFVIFRENTEDVYAGIEWPRGSEEALKLIRFLKNEFGVTIREDSGIGIKPISEFATKRLVRMAIRYAIENNRKSVTLVHKGNIMKYTEGAFRDWGYEVAKQEFGEYCITEDELWDKYGGKQPEGKIVVKDRIADNMFQQILTRTDEYDVIALPNLNGDYLSDAAAALIGGLGIAPGSNIGDGIGVFEPVHGSAPKYAGQNKVNPTAEILTGALMFEYIGWKDASEMIKKAVEMTISSGIVTYDIHRHMGGTKVGTREFAEAVVENLQSL”, the “soluble on expression in E. coli” value is reported as “soluble”. With “MSLSLEEALLFREATVTDLKSIMNVENAAFTVPWTEAAFRNEFIINQYAYYLLAIYKEQVVGYAGVWLVLDEGHITNIAIHPDYQGNHYGEALLREMIRVAKERGVVRMTLEVRVSNDVAQGLYKKLGFQDGAIRKNYYPDTKEDALVMWVDLEGHHHHHH” the “soluble on expression in E. coli” value was “soluble”.
